This is an account of results in the Human Domainome abundance scans (Beltran et al. 2025).

B1: POU domain, class 5, transcription factor 1, residues 134 to 212; numbered along this chain, Q01860 (parent)
chain: EESQDIKALQKELEQFAKLLKQKRITLGYTQADVGLTLGVLFGKVFSQTTICRFEALQLSFKNMCKLRPLLQKWVEEAD

± gives the uncertainty stated by the source.

The variants in the series derive from B1. The series can be described thus: abundance fitness (aPCA) (normalised: wild type 0, dead -1); higher = more abundant; growth selection in yeast, the domain comes from the species named. Conditions: Homo sapiens.
Take EESQDIKALQKELEQFAKLLKQKRITLGYTQADVGLTLGVLFGKVFSQTTICRFEALQLSFKNMCKLRPLLQKWVWEAD [E76W]: the abundance fitness was -0.425 ± 0.19.

With EESQDIKALQKELEQFAKLLKQKRITLGYTQADVGLTLGVLFGKVFSQTTICRFEALQLSFKNMCKLRPLLQKWVQEAD [E76Q], the abundance fitness is -0.173 ± 0.26. In the case of EESQDIKALQKELEQFAKLLKQKRITLGYTQADVGLTLGVLFGKVFSQTTICRFEALQLSFKNMCKLRPLLQKWVDEAD [E76D], the abundance fitness was found to be 0.003 ± 0.19. On to EESQDIKALQKELEQFAKLLKQKRITLGYTQADVGLTLGVLFGKVFSQTTICRFEALQLSFKNMCKLRPLLQKWVVEAD [E76V], for which the abundance fitness is -0.434 ± 0.15. To EESQDIKALQKELEQFAKLLKQKRITLGYTQADVGLTLGVLFGKVFSQTTICRFEALQLSFKNMCKLRPLLQKWVELAD [E77L] belongs -0.124 ± 0.12; to EESQDIKALQKELEQFAKLLKQKRITLGYTQADVGLTLGVLFGKVFSQTTICRFEALQLSFKNMCKLRPLLQKWVEHAD [E77H], 0.144 ± 0.35. As to EESQDIKALQKELEQFAKLLKQKRITLGYTQADVGLTLGVLFGKVFSQTTICRFEALQLSFKNMCKLRPLLQKWVEPAD [E77P], the abundance fitness was -0.264 ± 0.17.

Take EESQDIKALQKELEQFAKLLKQKRITLGYTQADVGLTLGVLFGKVFSQTTICRFEALQLSFKNMCKLRPLLQKWVEWAD [E77W]: the abundance fitness stood at 0.226 ± 0.076. To EESQDIKALQKELEQFAKLLKQKRITLGYTQADVGLTLGVLFGKVFSQTTICRFEALQLSFKNMCKLRPLLQKWVEDAD [E77D] belongs -0.107 ± 0.16; to EESQDIKALQKELEQFAKLLKQKRITLGYTQADVGLTLGVLFGKVFSQTTICRFEALQLSFKNMCKLRPLLQKWVETAD [E77T], -0.129 ± 0.19; to EESQDIKALQKELEQFAKLLKQKRITLGYTQADVGLTLGVLFGKVFSQTTICRFEALQLSFKNMCKLRPLLQKWVEMAD [E77M], 0.037 ± 0.17. As to EESQDIKALQKELEQFAKLLKQKRITLGYTQADVGLTLGVLFGKVFSQTTICRFEALQLSFKNMCKLRPLLQKWVEYAD [E77Y], the abundance fitness amounted to 0.096 ± 0.18. On to EESQDIKALQKELEQFAKLLKQKRITLGYTQADVGLTLGVLFGKVFSQTTICRFEALQLSFKNMCKLRPLLQKWVEGAD [E77G], for which the abundance fitness was -0.124 ± 0.079. In the case of EESQDIKALQKELEQFAKLLKQKRITLGYTQADVGLTLGVLFGKVFSQTTICRFEALQLSFKNMCKLRPLLQKWVEAAD [E77A], the abundance fitness was -0.124 ± 0.099. Then EESQDIKALQKELEQFAKLLKQKRITLGYTQADVGLTLGVLFGKVFSQTTICRFEALQLSFKNMCKLRPLLQKWVERAD [E77R], with -0.108 ± 0.078. Turning to EESQDIKALQKELEQFAKLLKQKRITLGYTQADVGLTLGVLFGKVFSQTTICRFEALQLSFKNMCKLRPLLQKWVEKAD [E77K], the abundance fitness is -0.074 ± 0.17.

Regarding EESQDIKALQKELEQFAKLLKQKRITLGYTQADVGLTLGVLFGKVFSQTTICRFEALQLSFKNMCKLRPLLQKWVEVAD [E77V], the abundance fitness is -0.161 ± 0.12. Take EESQDIKALQKELEQFAKLLKQKRITLGYTQADVGLTLGVLFGKVFSQTTICRFEALQLSFKNMCKLRPLLQKWVEQAD [E77Q]: the abundance fitness stood at 0.184 ± 0.12. As to EESQDIKALQKELEQFAKLLKQKRITLGYTQADVGLTLGVLFGKVFSQTTICRFEALQLSFKNMCKLRPLLQKWVEIAD [E77I], the abundance fitness was -0.079 ± 0.23. Then EESQDIKALQKELEQFAKLLKQKRITLGYTQADVGLTLGVLFGKVFSQTTICRFEALQLSFKNMCKLRPLLQKWVENAD [E77N], with 0.718 ± 0.33; and EESQDIKALQKELEQFAKLLKQKRITLGYTQADVGLTLGVLFGKVFSQTTICRFEALQLSFKNMCKLRPLLQKWVEEQD [A78Q], with 0.053 ± 0.27; and EESQDIKALQKELEQFAKLLKQKRITLGYTQADVGLTLGVLFGKVFSQTTICRFEALQLSFKNMCKLRPLLQKWVEEMD [A78M], with -0.033 ± 0.14. Consider EESQDIKALQKELEQFAKLLKQKRITLGYTQADVGLTLGVLFGKVFSQTTICRFEALQLSFKNMCKLRPLLQKWVEECD [A78C], for which the abundance fitness is -0.36 ± 0.35. On to EESQDIKALQKELEQFAKLLKQKRITLGYTQADVGLTLGVLFGKVFSQTTICRFEALQLSFKNMCKLRPLLQKWVEEED [A78E], for which the abundance fitness was -0.06 ± 0.23. Then EESQDIKALQKELEQFAKLLKQKRITLGYTQADVGLTLGVLFGKVFSQTTICRFEALQLSFKNMCKLRPLLQKWVEEPD [A78P], with -0.549 ± 0.23. Turning to EESQDIKALQKELEQFAKLLKQKRITLGYTQADVGLTLGVLFGKVFSQTTICRFEALQLSFKNMCKLRPLLQKWVEERD [A78R], the abundance fitness is -0.289 ± 0.13. Then EESQDIKALQKELEQFAKLLKQKRITLGYTQADVGLTLGVLFGKVFSQTTICRFEALQLSFKNMCKLRPLLQKWVEEID [A78I], with 0.292 ± 0.24. As for EESQDIKALQKELEQFAKLLKQKRITLGYTQADVGLTLGVLFGKVFSQTTICRFEALQLSFKNMCKLRPLLQKWVEESD [A78S], the abundance fitness was -0.13 ± 0.16. As to EESQDIKALQKELEQFAKLLKQKRITLGYTQADVGLTLGVLFGKVFSQTTICRFEALQLSFKNMCKLRPLLQKWVEEGD [A78G], the abundance fitness is -0.304 ± 0.12.

With EESQDIKALQKELEQFAKLLKQKRITLGYTQADVGLTLGVLFGKVFSQTTICRFEALQLSFKNMCKLRPLLQKFVEEAD [W74F], the abundance fitness was -0.131 ± 0.47. To EESQDIKALQKELEQFAKLLKQKRITLGYTQADVGLTLGVLFGKVFSQTTICRFEALQLSFKNMCKLRPLLQKEVEEAD [W74E] belongs -0.138 ± 0.34. To EESQDIKALQKELEQFAKLLKQKRITLGYTQADVGLTLGVLFGKVFSQTTICRFEALQLSFKNMCKLRPLLQKGVEEAD [W74G] belongs -0.158 ± 0.18.

Consider EESQDIKALQKELEQFAKLLKQKRITLGYTQADVGLTLGVLFGKVFSQTTICRFEALQLSFKNMCKLRPLLQKVVEEAD [W74V], for which the abundance fitness is -0.264 ± 0.3.

Take EESQDIKALQKELEQFAKLLKQKRITLGYTQADVGLTLGVLFGKVFSQTTICRFEALQLSFKNMCKLRPLLQKDVEEAD [W74D]: the abundance fitness was -0.447 ± 0.28. With EESQDIKALQKELEQFAKLLKQKRITLGYTQADVGLTLGVLFGKVFSQTTICRFEALQLSFKNMCKLRPLLQKRVEEAD [W74R], the abundance fitness is -0.734 ± 0.27.
